Experiment [1] concerns the target C3b (UniProt P01024). Nature of the experiment: ITC.
Experiment [2] deals with C3b (UniProt P01024). Nature of the experiment: ITC, binder titrated into target.
Experiment [3] deals with C3b (UniProt P01024). Nature of the experiment: ITC, polypeptide titrated into C3b; fit box in the lower panel.
In experiment [4] the target is C3b (UniProt P01024). The experiment in a line: SPR, target amine-coupled to chip, single cycle kinetics, 1:1 Langmuir fit.

B1: polypeptide comprising the amino acid sequence of SEQ ID NO: 33 (designed binder)
chain: MVKVKFAATGEEKEVETSKIANVYRVGKDVLFSYDDQGKIGWGYVSEKDAPKELLDLLARAEREK
The molecule B1 had a Kd with C3b [1] of 1.3 nM. In the experiment with C3b [2], this molecule yielded a -TΔS of 6.5 kcal/mol, a Kd of 1.3 nM, an N of 0.9 and a ΔG of -12.1 kcal/mol. Further, in the experiment with C3b [2], the ΔH is -18.6 kcal/mol. In addition, the Ka with C3b [3] was found to be 7.95e+08 M⁻¹. In the experiment with C3b [4], this molecule came in with a Kd of 0.16 nM.

B2: polypeptide comprising the amino acid sequence of SEQ ID NO: 34 (designed binder)
chain: MVKVKFDATGEEKEVETSKISAVYRTGKDVLFSYDDQGKIGWGYVSEKDAPKELLDLLARAEREK
In the experiment with C3b [1], B2 returned a Kd of 0.7 nM. In the experiment with C3b [2], this molecule yielded a -TΔS of 14.7 kcal/mol, a Kd of 0.7 nM, an N of 0.89 and a ΔG of -12.5 kcal/mol. This molecule also registered a ΔH with C3b [2] of -27.2 kcal/mol. The molecule further displayed a Ka with C3b [3] of 1.4e+09 M⁻¹. Besides, in the experiment with C3b [4], the Kd came out at 0.42 nM.

B3: polypeptide having the amino acid sequence of SEQ ID NO: 27 (designed binder)
chain: MVKVKFEATGEEKEVDTSKIYQVYRSGKEVLFTYDDNGKTGWGYVSEKDAPKELLDMLARAEREK
Molecule B3 displayed a Kd in the experiment with C3b [1] of 2.6 nM. In the experiment with C3b [2], this molecule came in with a -TΔS of 23.9 kcal/mol, a Kd of 2.6 nM, an N of 0.95 and a ΔG of -11.7 kcal/mol. In the experiment with C3b [2], this molecule registered a ΔH of -35.6 kcal/mol. The same molecule showed a Ka in the experiment with C3b [3] of 3.88e+08 M⁻¹. The molecule also had a dissociation constant (Kd) with C3b [4] of 1.92 nM.

Values taken from patent US20250145673A1.
